# Source: publication PMC6327041, “Histone H3 binding to the PHD1 domain of histone demethylase KDM5A enables active site remodeling” (Nature Communications, 2019)
# B1: unmodified H3 10mer effector peptide (H3 Ala1-Ser10) [not stated] / GST-PHD1 (S287-K347) of KDM5A [human] (parent)
# chain 1: ARTKQTARKS
# chain 2: SVNFVDLYVCMFCGRGNNEDKLLLCDGCDDSYHTFCLIPPLPDVPKGDWRCPKCVAEECSK
# Variants of: B1
# Experiment: competition-based fluorescence polarization assay
# Details: with GST-PHD1 (S287-K347) of KDM5A [human]
row,Kd [µM],Variant
1,205,chain 1 R2A
